Laboratory results from patent publication US20140004122A1, “METHODS FOR TREATING OR PREVENTING CHOLESTEROL RELATED DISORDERS” (AMGEN INC., priority 2011, published 2014).
Numbering of substitutions follows the chain as printed.

B1: 21B12 IgG2: human 21B12 IgG2 antibody produced from transfected cells (antibody)
heavy: QVQLVQSGAEVKKPGASVKVSCKASGYTLTSYGISWVRQAPGQGLEWMGWVSFYNGNTNYAQKLQGRGTMTTDPSTSTAYMELRSLRSDDTAVYYCARGYGMDVWGQGTTVTVSSASTKGPSVFPLAPCSRSTSESTAALGCLVKDYFPEPVTVSWNSGALTSGVHTFPAVLQSSGLYSLSSVVTVPSSNFGTQTYTCNVDHKPSNTKVDKTVERKCCVECPPCPAPPVAGPSVFLFPPKPKDTLMISRTPEVTCVVVDVSHEDPEVQFNWYVDGVEVHNAKTKPREEQFNSTFRVVSVLTVVHQDWLNGKEYKCKVSNKGLPAPIEKTISKTKGQPREPQVYTLPPSREEMTKNQVSLTCLVKGFYPSDIAVEWESNGQPENNYKTTPPMLDSDGSFFLYSKLTVDKSRWQQGNVFSCSVMHEALHNHYTQKSLSLSPGK
light: QSALTQPASVSGSPGQSITISCTGTSSDVGGYNSVSWYQQHPGKAPKLMIYEVSNRPSGVSNRFSGSKSGNTASLTISGLQAEDEADYYCNSYTSTSMVFGGGTKLTVLQPKAAPSVTLFPPSSEELQANKATLVCLISDFYPGAVTVAWKADSSPVKAGVETTTPSKQSNNKYAASSYLSLTPEQWKSHRSYSCQVTHEGSTVEKTVAPTECS
B2: 27B2: anti-PCSK9 antibody; light/heavy variable region SEQ ID NO 13/87 (antibody, listed as Homo sapiens, V domains shown)
VH: QVQLQESGPGLVKPSQTLSLTCTVSGGSISSGGYYWSWIRQHPGKGLEWIGYIYNSGSTYYNPSLKSRVTISVDTSKNQFSLKLSSVTAADTAVYYCAREDTAMVPYFDYWGQGTLVTVSS
VL: QSVLTQPPSVSGAPGQRVTISCTGSSSNIGAHYDVHWYQQVPGTAPKLLIYGNTYRPSGVPDRFSGSKSGTSASLAITGLQAEDEADYYCQSYDNSLSGVVFGGGTKLTVL
B3: 13B5: anti-PCSK9 antibody; light/heavy variable region SEQ ID NO 42/69 (antibody, listed as Homo sapiens, V domains shown)
VH: EVQLLESGGGLVQPGGSLRLSCAASGFTFSSYAMSWVRQAPGKGLEWVSTISGSGGRTYYADSVKGRFTISRDNSKNTLYLQMNSLRAEDTAVYYCAKEVGSPFDYWGQGTLVTVSS
VL: QSVLTQPPSVSAAPGQKVTISCSGSNSNIGNNYVSWYQQLPGTAPKLLIYDNNKRPSGIPDRFSGSNSGTSATLGITGLQTGDEADYYCGTWDSSLSAVVFGGGTKLTVL
B4: 16F12: anti-PCSK9 antibody; light/heavy variable region SEQ ID NO 35/79 (antibody, listed as Homo sapiens, V domains shown)
VH: QVHLVESGGGVVQPGRSLRLSCAASGFTFNSFGMHWVRQAPGKGLEWVALIWSDGSDEYYADSVKGRFTISRDNSKNTLYLQMNSLRAEDTAVYYCARAIAALYYYYGMDVWGQGTTVTVSS
VL: B3 VL with N26S, Y33F, N52Y, N67K, V99Y, G103T, K106R, L107V
B5: 13H1: anti-PCSK9 antibody; light/heavy variable region SEQ ID NO 28/91 (antibody, listed as Homo sapiens, V domains shown)
VH: QVQLQQSGPGLVKPSQTLSLTCAISGDSVSSNSAAWNWIRQSPSRGLEWLGRTYYRSKWYKNYSVSVKSRITINPDTSKNQFSLQLNSVTPGDTAVYYCARGGPTAAFDYWGQGTLVTVSS
VL: LSALTQPASVSGSPGQSITISCTGTSSDVGNYNLVSWYQQYSGKAPKLMIYEVSKRPSGVSNRFSGSKSGNTASLTISGLQAEDEADYYCCSYAGSSTLVFGGGTKLTVL
B6: 3B6: anti-PCSK9 antibody; light/heavy variable region SEQ ID NO 46/60 (antibody, listed as Homo sapiens, V domains shown)
VH: QVQLVQSGAEVKKPGASVKVSCKASGYTFTSYGISWVRQAPGQGLEWMGWISTYNGNTNYAQKVQGRVTMTTDTSTSTAYMELRSLRSDDTAVYYCARGYTRDYWGQGTLVTVSS
VL: QPVLTQPLFASASLGASVTLTCTLSSGYSSYEVDWYQQRPGKGPRFVMRVDTGGIVGSKGEGIPDRFSVLGSGLNRYLTIKNIQEEDESDYHCGADHGSGTNFVVVFGGGTKLTVL
B7: 25A7: anti-PCSK9 antibody; light/heavy variable region SEQ ID NO 15/58; 25A7.3 referred to as 25A7 (antibody, listed as Homo sapiens, V domains shown)
VH: B6 VH with T30P, T53A, Q62E, V64L, L83V, Y94F, T101V, R102M, Y104V, L110T
VL: QSALTQPASVSGSPGQSITISCTGTSSDVGRYNSVSWYQHHPGKAPKVMIYEVSNRPSGVSTRFSGSKSGNTASLTISGLQAEDEADYYCSSYTSSSVVFGGGTKLTVL

Legend:
D374Y PCSK9/LDLR binding = D374Y PCSK9/LDLR binding (Homo sapiens, UniProt Q8NBP7, D374Y); experiment: Blocking D374Y PCSK9/LDLR binding (Example 9); settings: 20 ng/ml biotinylated D374Y PCSK9
Description: Clear 384 well plates (Costar) were coated with 2 micrograms/ml of goat anti-LDL receptor antibody (R&D Systems) diluted in buffer A (100 mM sodium cacodylate, pH 7.4). Plates were washed thoroughly with buffer A and then blocked for 2 hours with buffer B (1% milk in buffer A). After washing, plates were incubated for 1.5 hours with 0.4 micrograms/ml of LDL receptor (R&D Systems) diluted in buffer C (buffer B supplemented with 10 mM CaCl2). […] The LDL receptor containing plates were washed and the biotinylated D374Y PCSK9/antibody mixture was transferred to them and incubated for 1 hour at room temperature. Binding of the biotinylated D374Y to the LDL receptor was detected by incubation with streptavidin-HRP (Biosource) at 500 ng/ml in buffer C followed by TMB substrate (KPL). The signal was quenched with 1N HCl and the absorbance read at 450 nm.

[1] = molecular target: D374Y human PCSK9 (HepG2 cells) (Homo sapiens, UniProt Q8NBP7, D374Y); experiment: Cell LDL uptake assay (Example 10); assay type: cell-based; settings: 2 μg/ml D374Y human PCSK9, HepG2 cells
Description: Human HepG2 cells were seeded in black, clear bottom 96-well plates (Costar) at a concentration of 5×10^5 cells per well in DMEM medium (Mediatech, Inc) supplemented with 10% FBS and incubated at 37° C. (5% CO2) overnight. To form the PCSK9 and antibody complex, 2 μg/ml of D374Y human PCSK9 was incubated with various concentrations of antibody diluted in uptake buffer (DMEM with 1% FBS) or uptake buffer alone (control) for 1 hour at room temperature. After washing the cells with PBS, the D374Y PCSK9/antibody mixture was transferred to the cells, followed by LDL-BODIPY (Invitrogen) diluted in uptake buffer at a final concentration of 6 μg/ml. After incubation for 3 hours at 37° C. (5% CO2), cells were washed thoroughly with PBS and the cell fluorescence signal was detected by Safire™ (TECAN) at 480-520 nm (excitation) and 520-600 nm (emission).

[2] = molecular target: D374Y PCSK9 binding to LDLR (Homo sapiens, UniProt Q8NBP7, D374Y); experiment: Large scale receptor ligand blocking screen and functional classification of ABPs; settings: functional assays of the screening
Description: To screen for the antibodies that block PCSK9 binding to LDLR an assay was developed using the D374Y PCSK9 mutant. […] The following protocol was employed in the receptor ligand blocking screen: Costar 3702 medium binding 384 well plates (Corning Life Sciences) were employed in the screen. The plates were coated with goat anti-LDLR (R&D Cat #AF2148) at 2 μg/ml in 1×PBS/0.05% Azide at a volume of 40 μl/well. The plates were incubated at 4° C. overnight. The plates were then washed using a Titertek plate washer (Titertek, Huntsville, Ala.). A 3-cycle wash was performed. The plates were blocked with 90 μl of 1×PBS/1% milk and incubated approximately 30 minutes at room temperature. The plates were then washed using the Titertek plate washer. A 3-cycle wash was performed. The capture sample was LDLR (R&D, Cat #2148LD/CF), and was added at 0.4 μg/ml in 1×PBS/1% milk/10 mM Ca^2+ at a volume of 40 μl/well. The plates were then incubated for 1 hour and 10 minutes at room temperature. Contemporaneously, 20 ng/ml of biotinylated human D374Y PCSK9 was incubated with 15 micro liters of hybridoma exhaust supernatant in Nunc polypropylene plates and the exhaust supernatant concentration was diluted 1:5. The plates were then pre-incubated for about 1 hour and 30 minutes at room temperature. Next, the plates were washed using the Titertek plate washer operated using a 3-cycle wash. 50 μl/well of the pre-incubated mixture was transferred onto the LDLR coated ELISA plates and incubated for 1 hour at room temperature. To detect LDLR-bound b-PCSK9, 40 μl/well streptavidin HRP at 500 ng/ml in assay diluent was added to the plates. The plates were incubated for 1 hour at room temperature. The plates were again washed using a Titertek plate washer. A 3-cycle wash was performed. Finally, 40 μl/well of One-step TMB (Neogen, Lexington, Ky.) was added to the plate and was quenched with 40 μl/well of 1N hydrochloric acid after 30 minutes at room temperature. OD's were read immediately at 450 nm using a Titertek plate reader.
The receptor ligand assay was then repeated using the mutant enzyme on the 384 member subset of neutralizers identified in the first large scale receptor ligand inhibition assay. The same protocol was employed in the screen of the 384 member blocker subset assay as was done in the large scale receptor ligand blocking screen.
Limiting dilution was used to isolate a manageable number of clones from each line. […] The isolated clones were each expanded in 50-100 ml of hybridoma media and allowed to grow to exhaustion, (i.e., less than about 10% cell viability). The concentration and potency of the antibodies to PCSK9 in the supernatants of those cultures were determined by ELISA and by in vitro functional testing, as described herein.

[3] = test system: wild type (WT) mice (C57BL/6); experiment: Serum cholesterol and HDL in 13 day study; assay type: in vivo, mouse; settings: 10 mg/kg, repeated 13 day study (FIG. 10C)
From the text: Male WT mice (C57BL/6 strain, aged 9-10 weeks, 17-27 g) obtained from Jackson Laboratory (Bar Harbor, Me.) were fed a normal chow (Harland-Teklad, Diet 2918) through out the duration of the experiment. […] Naïve mice were also set aside as naïve control group.
Animals were sacrificed and livers were extracted and prepared as in Example 11.
The HDL levels for the animals in Example 13 were also examined.

Molecule	neutralizing ability (blocking PCSK9/LDLR) [2]	further results
B1	–	IC50 (D374Y PCSK9/LDLR binding): 0.17 nM; IC50 [1]: 13.3 nM
B2	non-neutralizing	–
B3	non-neutralizing	–
B4	–	total serum cholesterol after a single dose [3]: significant and substantial decreases in total serum cholesterol
B5	non-neutralizing	–
B6	weak neutralizers	–
B7	neutralizing	–
